The target of test [1] is T1, Rat serum albumin (rat, UniProt P02770 25-608).
T1 construct: bought; immobilised on a CM5 chip by amine coupling; also called Rat SA
Description: SPR, SA on chip, 1:1 fit, 25 C.

Test [2] addresses T2, Dog serum albumin (dog, UniProt P49822 25-608).
T2 construct: bought; immobilised on a CM5 chip by amine coupling; also called Dog SA
In words: SPR, SA on chip, 1:1 fit, 25 C. In general terms: Surface plasmon resonance follows binding to a sensor surface in real time, without labels.

Test [3] deals with T3, Pig serum albumin (pig, UniProt P08835 25-607).
T3 construct: bought; immobilised on a CM5 chip by amine coupling; also called Pig SA
Description: SPR, SA on chip, 1:1 fit, 25 C.

The target of test [4] is T4, Cynomolgus monkey serum albumin (cynomolgus monkey, UniProt A2V9Z4 25-608).
T4 construct: bought; immobilised on a CM5 chip by amine coupling; also called Cyno SA
In words: SPR, SA on chip, 1:1 fit, 25 C.

For test [5], the target named is T5, Mouse serum albumin (mouse, UniProt P07724 25-608).
T5 construct: bought; immobilised on a CM5 chip by amine coupling; also called Mouse SA
In words: SPR, SA on chip, 1:1 fit, 25 C.

Test [6] addresses T6, Cow serum albumin (cow, UniProt P02769 25-607).
T6 construct: bought; immobilised on a CM5 chip by amine coupling; also called Cow SA
In words: SPR, SA on chip, 1:1 fit, 25 C.

In test [7] the target is T7, Human serum albumin (human, UniProt P02768 25-609).
T7 construct: bought; immobilised on a CM5 chip by amine coupling; also called Human SA
Description: SPR, SA on chip, 1:1 fit, 25 C.

Test [8] addresses human ErbB4 receptor (NCBI Ref. Seq. No. NP_001036064.1) (human, UniProt Q15303 26-1308). Description: cell-based or functional assay.
In test [9] the target is T8, Rabbit serum albumin (rabbit, UniProt P49065 25-608).
T8 construct: bought; immobilised on a CM5 chip by amine coupling; also called Rabbit SA
Description: SPR, SA on chip, 25 C.

In test [10] the target is T9, human CNTF receptor (CNTFR) on IMR-32 cells (human, UniProt P26992 23-342).
T9 sequence (looked up): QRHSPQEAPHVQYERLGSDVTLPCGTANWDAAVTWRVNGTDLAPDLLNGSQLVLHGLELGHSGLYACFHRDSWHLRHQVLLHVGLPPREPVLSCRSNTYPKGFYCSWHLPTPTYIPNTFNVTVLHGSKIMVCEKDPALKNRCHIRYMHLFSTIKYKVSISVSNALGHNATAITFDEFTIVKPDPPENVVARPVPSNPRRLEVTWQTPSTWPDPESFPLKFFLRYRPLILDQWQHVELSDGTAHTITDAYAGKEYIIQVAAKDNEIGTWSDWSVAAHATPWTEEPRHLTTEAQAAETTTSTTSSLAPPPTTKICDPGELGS
In words: cell-based or functional assay.

Test [11] has as its target T1, Rat serum albumin. In words: SPR, SA on chip, 1:1 fit, 25 C. This is another data set of the same source.
Test [12] deals with T2, Dog serum albumin. Description: SPR, SA on chip, 1:1 fit, 25 C. The source holds these as a separate data set.
In test [13] the target is T3, Pig serum albumin. Description: SPR, SA on chip, 1:1 fit, 25 C. This is another data set of the same source.
Test [14] has as its target T4, Cynomolgus monkey serum albumin. In words: SPR, SA on chip, 1:1 fit, 25 C. The source holds these as a separate data set.
The target of test [15] is T5, Mouse serum albumin. In words: SPR, SA on chip, 1:1 fit, 25 C. The source holds these as a separate data set.
Test [16] addresses T6, Cow serum albumin. Description: SPR, SA on chip, 1:1 fit, 25 C. The source holds these as a separate data set.
Test [17] addresses T7, Human serum albumin. In words: SPR, SA on chip, 1:1 fit, 25 C. This is another data set of the same source.
Test [18] deals with T8, Rabbit serum albumin. Description: SPR, SA on chip, 25 C. This is another data set of the same source.
For test [19], the target named is T8, Rabbit serum albumin. Description: SPR, SA on chip, 25 C. The source holds these as a separate data set.
Test [20] deals with T1, Rat serum albumin. Description: SPR, SA on chip, 1:1 fit, 25 C. The source holds these as a separate data set.
Test [21] deals with T2, Dog serum albumin. Description: SPR, SA on chip, 1:1 fit, 25 C. The source holds these as a separate data set.
In test [22] the target is T3, Pig serum albumin. Description: SPR, SA on chip, 1:1 fit, 25 C. The source holds these as a separate data set.
Test [23] addresses T4, Cynomolgus monkey serum albumin. In words: SPR, SA on chip, 1:1 fit, 25 C. This is another data set of the same source.
Test [24] has as its target T5, Mouse serum albumin. In words: SPR, SA on chip, 1:1 fit, 25 C. The source holds these as a separate data set.
Test [25] has as its target T6, Cow serum albumin. In words: SPR, SA on chip, 1:1 fit, 25 C. The source holds these as a separate data set.
The target in test [26] is T7, Human serum albumin. In words: SPR, SA on chip, 1:1 fit, 25 C. This is another data set of the same source.

Like-named read-outs stand apart in the source and are kept apart here.

B1: VHH-based fusion of Example 3, VHH fusion 3 (NRG1-(G4Q)5-MC6.1C22.43) (other)
chain: SHLVKCAEKEKTFCVNGGECFMVKDLSNPSRYLCKCPNEFTGDRCQNYVMASFYKHLGIEFMEAEELYQGGGGQGGGGQGGGGQGGGGQGGGGQEVQLLESGGGLVQPGGSLRLSCAASGRYIDETAVAWFRQAPGKEREFVAGIGGGVDITYYADSVKGRFTISRDNSKNTLYLQMNSLRPEDTAVYYCAARPGRPLITSKVADLYPYWGQGTLVTVSSPP
notes: also called Compound 3; NRG1-VHH fusion
Regarding B1, the Kd (in general, the concentration at which binding is half-saturated) amounted to 52 nM in test [1]; 19 nM in test [2]; 130 nM in test [3]; 6.1 nM in test [4]; 62 nM in test [5]; 470 nM in test [6]. The same molecule yielded a Kd in test [7] of 1.9 nM. The koff (as a rule, a measure of how fast the partners let go of each other) in [1] amounted to 0.006 s⁻¹; in [2], 0.0032 s⁻¹; in [3] it was 0.012 s⁻¹; in test [4] it was 0.00087 s⁻¹; in test [5], 0.0088 s⁻¹; in test [6] it was 0.072 s⁻¹. In test [7], the koff turned out to be 0.00023 s⁻¹. Besides, the kon (as a rule, a measure of how fast the partners come together) in test [1] came out at 120000 M⁻¹ s⁻¹; in [2] it was 170000 M⁻¹ s⁻¹; in test [3], 93000 M⁻¹ s⁻¹; in [4] it was 140000 M⁻¹ s⁻¹; in test [5], 140000 M⁻¹ s⁻¹; in [6], 160000 M⁻¹ s⁻¹. In test [7], this molecule displayed a kon of 120000 M⁻¹ s⁻¹. The “EC50 (ng/mL), PathHunter ErbB4/ErbB4 dimerization assay” value in test [8] turned out to be 33.5 ng/mL. The binding result in test [9] is on record as “no binding (tested: up to 1000 nM)”.

B2: VHH-based fusion of Example 2, VHH fusion 2 (MC6.1C22-(G4Q)5-CNTF) (other)
chain: EVQLLESGGGLVQPGGSLRLSCAASGRYIDETAVAWFRQAPGKEREFVAGIGGGVDITYYADSVKGRFTISRDNSKNTLYLQMNSLRPEDTAVYYCAARPGRPLITSKVADLYPYWGQGTLVTVSSGGGGQGGGGQGGGGQGGGGQGGGGQMAFTEHSPLTPHRRDLASRSIWLARKIRSDLTALTESYVKHQGLNKNINLDSADGMPVASTDRWSELTEAERLQENLQAYRTFHVLLARLLEDQQVHFTPTEGDFHQAIHTLLLQVAAFAYQIEELMILLEYKIPRNEADGMPINVGDGGLFEKKLWGLKVLQELSQWTVRSIHDLRFISSHQTG
notes: also called Compound 2; VHH-CNTF fusion
As to B2, the “hCNTFR EC50 pM GeoMean (pSTAT3 in IMR-32 cells)” value in test [10] was 8.39 pM. Also, the Kd amounted to 6.1 nM in test [11]; 3.7 nM in [12]; 19 nM in test [13]; 1.2 nM in [14]; 8.8 nM in test [15]; 110 nM in test [16]. In addition, the Kd in [17] was found to be 0.58 nM. The koff in test [11] came to 0.003 s⁻¹; in [12], 0.0017 s⁻¹; in test [13] it was 0.0057 s⁻¹; in [14] it was 0.0006 s⁻¹; in test [15], 0.0042 s⁻¹; in test [16] it was 0.052 s⁻¹. Also, the koff in test [17] came to 0.00025 s⁻¹. Moreover, the kon in test [11] was 490000 M⁻¹ s⁻¹; in test [12], 460000 M⁻¹ s⁻¹; in [13] it was 300000 M⁻¹ s⁻¹; in [14], 500000 M⁻¹ s⁻¹; in test [15], 480000 M⁻¹ s⁻¹; in test [16], 460000 M⁻¹ s⁻¹. This molecule also showed a kon in [17] of 430000 M⁻¹ s⁻¹. The binding result in [18] is recorded as “no binding (tested: up to 1000 nM)”.

B3: VHH-based fusion of Example 1, VHH fusion 1 (CNTF-(G4Q)5-MC6.1C22.43) (other)
chain: MAFTEHSPLTPHRRDLASRSIWLARKIRSDLTALTESYVKHQGLNKNINLDSADGMPVASTDRWSELTEAERLQENLQAYRTFHVLLARLLEDQQVHFTPTEGDFHQAIHTLLLQVAAFAYQIEELMILLEYKIPRNEADGMPINVGDGGLFEKKLWGLKVLQELSQWTVRSIHDLRFISSHQTGGGGGQGGGGQGGGGQGGGGQGGGGQEVQLLESGGGLVQPGGSLRLSCAASGRYIDETAVAWFRQAPGKEREFVAGIGGGVDITYYADSVKGRFTISRDNSKNTLYLQMNSLRPEDTAVYYCAARPGRPLITSKVADLYPYWGQGTLVTVSSPP
notes: also called Compound 1; CNTF-VHH fusion
In the case of B3, the “hCNTFR EC50 pM GeoMean (pSTAT3 in IMR-32 cells)” value in [10] is 7.09 pM. Besides, in test [19], the binding result was “no binding (tested: up to 1000 nM)”. In addition, the Kd was 83 nM in test [20]; 40 nM in [21]; 190 nM in [22]; 13 nM in test [23]; 100 nM in test [24]; 820 nM in [25]. The molecule also returned a Kd in [26] of 3.2 nM. The koff worked out at 0.0063 s⁻¹ in test [20]; 0.0032 s⁻¹ in test [21]; 0.011 s⁻¹ in test [22]; 0.00086 s⁻¹ in test [23]; 0.0082 s⁻¹ in test [24]; 0.074 s⁻¹ in test [25]. In addition, the koff in [26] is 0.00024 s⁻¹. For the same molecule, the kon in test [20] was 75000 M⁻¹ s⁻¹; in test [21], 79000 M⁻¹ s⁻¹; in test [22], 58000 M⁻¹ s⁻¹; in test [23], 68000 M⁻¹ s⁻¹; in test [24], 81000 M⁻¹ s⁻¹; in test [25] it was 91000 M⁻¹ s⁻¹. This molecule also returned a kon in [26] of 76000 M⁻¹ s⁻¹.

The values above are taken from US20240316154A1 (Eli Lilly, published 2024).
